# Test system: cytochrome c
# cytochrome P-450 reductase purified from P. somniferum cell suspension cultures, sequence (chain, as listed by the source): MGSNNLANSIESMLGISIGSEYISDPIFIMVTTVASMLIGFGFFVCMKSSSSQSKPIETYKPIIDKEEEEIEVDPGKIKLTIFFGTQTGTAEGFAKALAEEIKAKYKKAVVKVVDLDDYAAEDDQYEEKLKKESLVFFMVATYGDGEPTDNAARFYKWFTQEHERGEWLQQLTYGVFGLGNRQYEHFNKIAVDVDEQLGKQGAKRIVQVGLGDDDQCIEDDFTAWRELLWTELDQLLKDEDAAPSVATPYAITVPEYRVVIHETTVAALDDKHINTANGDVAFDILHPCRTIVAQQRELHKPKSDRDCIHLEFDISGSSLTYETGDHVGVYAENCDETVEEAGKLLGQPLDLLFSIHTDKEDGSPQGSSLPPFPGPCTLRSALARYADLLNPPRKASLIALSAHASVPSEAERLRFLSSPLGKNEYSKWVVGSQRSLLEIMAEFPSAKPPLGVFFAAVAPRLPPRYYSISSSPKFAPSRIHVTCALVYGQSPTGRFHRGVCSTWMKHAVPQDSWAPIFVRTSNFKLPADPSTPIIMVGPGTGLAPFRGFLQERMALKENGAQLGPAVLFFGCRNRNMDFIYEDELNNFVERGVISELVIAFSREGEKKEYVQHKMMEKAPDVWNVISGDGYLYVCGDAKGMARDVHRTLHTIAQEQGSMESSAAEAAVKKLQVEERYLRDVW
substance,measurement,value
cytochrome P-450 reductase purified from P. somniferum cell suspension cultures,"Km (cytochrome c reduction, enzyme activity)",The Km value for cytochrome c was 8.3 µM

# From patent publication US7037674
